Measurements as given in article PMC2629542.

Each substance was assayed against Dr hemagglutinin (DraE) adhesin, Dr fimbriae (E. coli) (assay: SPR).

Substance	Kd [µM]
CEA-CEACAM8 chimera (from UniProt P06731 35-92) (domain or fragment)	14.4
N-CEA D40A (domain or fragment)	48.9
N-CEA F9A (domain or fragment)	18.4
N-CEA F29R (domain or fragment)	> 200
N-CEA G51D (domain or fragment)	12
N-CEA L28P (domain or fragment)	6.6
N-CEA Q44R (domain or fragment)	> 200
N-CEA S32N (domain or fragment)	12.8
N-CEA T52N (domain or fragment)	11
N-CEA V11A (domain or fragment)	24.9
N-CEA V39A (domain or fragment)	9.35
N-domain of CEA (domain or fragment)	13.1
N-domain of CEACAM1 (domain or fragment)	15.3

Target: Dr hemagglutinin (DraE) adhesin, Dr fimbriae (E. coli)
Assay: SPR
Remark: another data set of the same source

Substance	Kd [µM]
N-domain of CEA (domain or fragment)	13.1
